Measurements from patent US20200199647A1 (published 2020).

Columns and labels:
[1] = biological target: T1, PP1c (human PP1cα amino acids 7-330, N-terminal Thio6/His6 tag) (human, UniProt P62136 7-330); assay: thermophoresis (MST), labelled PP1c
T1 construct: range 7-330; Recombinant, from E. coli with GroEL/GroES and MnCl2; In thermophoresis it was labelled with the Monolith NT Red-NHS kit; also called protein phosphatase 1c; Thio6/His6-PP1c

[2] = biological target: T1, PP1c (human PP1cα amino acids 7-330, …); assay: thermophoresis, labelled PP1c, unlabelled fragment titrated

T1 sequence (P62136 other isoform, or with tags, fused parts or gaps): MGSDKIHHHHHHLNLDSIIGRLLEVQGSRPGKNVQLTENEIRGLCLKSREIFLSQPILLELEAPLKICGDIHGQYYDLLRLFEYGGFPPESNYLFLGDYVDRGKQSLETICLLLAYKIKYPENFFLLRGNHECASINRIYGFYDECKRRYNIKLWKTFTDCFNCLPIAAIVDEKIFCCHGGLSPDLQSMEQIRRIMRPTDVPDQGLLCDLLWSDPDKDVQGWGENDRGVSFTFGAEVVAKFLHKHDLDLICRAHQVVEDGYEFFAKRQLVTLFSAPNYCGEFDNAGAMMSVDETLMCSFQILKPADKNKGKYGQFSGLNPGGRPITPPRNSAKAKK

| binding result [1] | binding result [2] | Binder |
| --- | --- | --- |
| binds | – | R15B^C (human PPP1R15B amino acids 636-698, N-terminal MBP-tag, C-terminal His6-tag) (other, not shown: large carriers, range 636-698; also called R15B^636-698; carboxy-terminal fragment of R15B) VKRKKVTFLEEVTEYYISGDEDRKGPWEEFARDGCRFQKRIQETEDAIGYCLTFEHRERMFNRHHHHHH |
| – | no binding | R15B^N (human PPP1R15B amino acids 340-635, N-terminal MBP-tag, C-terminal His6-tag) (other, not shown: large carriers, range 340-635; also called R15B^340-635; amino-terminal fragment of R15B) RDNPTQFVPAAGDIPGNTQESTEEKIELLTTEVPLALEEESPSEGCPSSEIPMEKEPGEGRISVVDYSYLEGDLPISARPACSNKLIDYILGGASSDLETSSDPEGEDWDEEAEDDGFDSDSSLSDSDLEQDPEGLHLWNSFCSVDPYNPQNFTATIQTAARIVPEEPSDSEKDLSGKSDLENSSQSGSLPETPEHSSGEEDDWESSADEAESLKLWNSFCNSDDPYNPLNFKAPFQTSGENEKGCRDSKTPSESIVAISECHTLLSCKVQLLGSQESECPDSVQRDVLSGGRHTHHHHHHH |
